From patent US20110086767A1, “MUTANTS OF GLYCOSIDE HYDROLASES AND USES THEREOF FOR SYNTHESIZING COMPLEX OLIGOSACCHARIDES AND DISACCHARIDE INTERMEDIATES” (Institut Pasteur, priority 2008, published 2011)
Substitutions are numbered along the chain they refer to. In names and notes the source's numbering stands.

B1: F290V: single mutant F290V of N. polysaccharea amylosucrase (protein)
chain: SPNSQYLKTRILDIYTPEQRAGIEKSEDWRQFSRRMDTHFPKLMNELDSVYGNNEALLPMLEMLLAQAWQSYSQRNSSLKDIDIARENNPDWILSNKQVGGVCYVDLFAGDLKGLKDKIPYFQELGLTYLHLMPLFKCPEGKSDGGYAVSSYRDVNPALGTIGDLREVIAALHEAGISAVVDFIFNHTSNEHEWAQRCAAGDPLFDNFYYIFPDRRMPDQYDRTLREIFPDQHPGGFSQLEDGRWVWTTFNSFQWDLNYSNPWVFRAMAGEMLFLANLGVDILRMDAVAVIWKQMGTSCENLPQAHALIRAFNAVMRIAAPAVFFKSEAIVHPDQVVQYIGQDECQIGYNPLQMALLWNTLATREVNLLHQALTYRHNLPEHTAWVNYVRSHDDIGWTFADEDAAYLGISGYDHRQFLNRFFVNRFDGSFARGVPFQYNPSTGDCRVSGTAAALVGLAQDDPHAVDRIKLLYSIALSTGGLPLIYLGDEVGTLNDDDWSQDSNKSDDSRWAHRPRYNEALYAQRNDPSTAAGQIYQDLRHMIAVRQSNPRFDGGRLVTFNTNNKHIIGYIRNNALLAFGNFSEYPQTVTAHTLQAMPFKAHDLIGGKTVSLNQDLTLQPYQVMWLEIA
B2: F290H: single mutant F290H of N. polysaccharea amylosucrase (protein)
chain: B1 chain with V290H
B3: I228V-F229L: double mutant I228V, F229L of N. polysaccharea amylosucrase (protein)
chain: B1 chain with I228V, F229L, V290F
B4: I228V-F229M: double mutant I228V, F229M of N. polysaccharea amylosucrase (protein)
chain: B1 chain with I228V, F229M, V290F
B5: I228A-F290H: double mutant I228A, F290H of N. polysaccharea amylosucrase (protein)
chain: B1 chain with I228A, V290H
B6: F290R: single mutant F290R of N. polysaccharea amylosucrase (protein)
chain: B1 chain with V290R
B7: I228T-F290K: double mutant I228T, F290K of N. polysaccharea amylosucrase (protein)
chain: B1 chain with I228T, V290K
B8: I228K-F290W: double mutant I228K, F290W of N. polysaccharea amylosucrase (protein)
chain: B1 chain with I228K, V290W
B9: F290G: single mutant F290G of N. polysaccharea amylosucrase (protein)
chain: B1 chain with V290G
B10: F229L: single mutant F229L of N. polysaccharea amylosucrase (protein)
chain: B1 chain with F229L, V290F
B11: I228M-F229M: double mutant I228M, F229M of N. polysaccharea amylosucrase (protein)
chain: B1 chain with I228M, F229M, V290F
B12: I228K-F290L: double mutant I228K, F290L of N. polysaccharea amylosucrase (protein)
chain: B1 chain with I228K, V290L
B13: I228V-F290H: double mutant I228V, F290H of N. polysaccharea amylosucrase (protein)
chain: B1 chain with I228V, V290H
B14: A289H-F290S: double mutant A289H, F290S of N. polysaccharea amylosucrase (protein)
chain: B1 chain with A289H, V290S
B15: F229V: single mutant F229V of N. polysaccharea amylosucrase (protein)
chain: B1 chain with F229V, V290F
B16: I228T-F290H: double mutant I228T, F290H of N. polysaccharea amylosucrase (protein)
chain: B1 chain with I228T, V290H
B17: I228V-F290K: double mutant I228V, F290K of N. polysaccharea amylosucrase (protein)
chain: B1 chain with I228V, V290K
B18: A289T-F290H: double mutant A289T, F290H of N. polysaccharea amylosucrase (protein)
chain: B1 chain with A289T, V290H
B19: F229M: single mutant F229M of N. polysaccharea amylosucrase (protein)
chain: B1 chain with F229M, V290F
B20: I228V-F290R: double mutant I228V, F290R of N. polysaccharea amylosucrase (protein)
chain: B1 chain with I228V, V290R
B21: I228P-F290C: double mutant I228P, F290C of N. polysaccharea amylosucrase (protein)
chain: B1 chain with I228P, V290C
B22: I228L-F229L: double mutant I228L, F229L of N. polysaccharea amylosucrase (protein)
chain: B1 chain with I228L, F229L, V290F
B23: I228C-F229L: double mutant I228C, F229L of N. polysaccharea amylosucrase (protein)
chain: B1 chain with I228C, F229L, V290F
B24: I228V-F290V: double mutant I228V, F290V of N. polysaccharea amylosucrase (protein)
chain: B1 chain with I228V
B25: F290L: single mutant F290L of N. polysaccharea amylosucrase (protein)
chain: B1 chain with V290L

Assay: HPLC screening of double-mutant libraries for variants able to glucosylate D-GlcpNAc
Format: biochemical
Conditions: α-D-Glcp-(1→4)-α-D-GlcpNAc (ED) from sucrose and D-GlcpNAc, microplate format
Protocol: The protocol was established to enable the rapid identification of clones for which D-GlcpNAc glucosylation was improved. To obtain higher amounts of enzymes and facilitate detection of glucosylated compounds upon HPLC screening, mutants were produced in 96-DeepWell Format plates. Storage microplates containing monomutants were thawed and replicated to inoculate a starter culture in 96-well microplates containing, in each well, 150 μL LB medium supplemented with ampicillin (100 μg/mL). After growth for 24 h at 30° C. under agitation (200 rpm), plates were duplicated into 96-Deep Well plates containing, in each well, 1.1 mL LB medium supplemented with ampicillin (100 μg/mL) and IPTG (1 mM) to induce GST-AS expression. Cultures were then grown for 24 h at 30° C. under agitation (200 rpm). Plates were centrifuged (20 min, 3000 g, 4° C.) and the supernatant was removed. The cell pellet was resuspended in 200 μL of lysozyme (0.5 mg/mL), followed by freezing at −80° C. for 8 to 12 h. After thawing at room temperature, 100 μL of sucrose and 100 μL of acceptor (each at a final concentration of 73 mM) were added to each well. Enzymatic reaction was incubated at 30° C. during 24 h under agitation. The DeepWell plates were then centrifuged (20 min, 3000 g, 4° C.) and 300 μL of the supernatant was transferred to a filter micro-plate (PVDF 0.2 μm) to be clarified. Supernatant filtration was carried out by centrifugation of the filter micro-plate (5 min, 2000 g, 4° C.) into a novel microplate for screening.
The method for the expression of the mutant libraries is described in Example 1-1.
Acceptor reaction products were analyzed by HPLC analysis using a C18-AQ column (Bischoff C18, 125×4 mm, 3 μm) kept at room temperature and eluted with 0.6 mL/min of ultra-pure water to detect α-D-Glcp-(1→4)-α-D-GlcpNAc formation (analysis time: 7 min). To evaluate the efficiency of the glucosylation reaction, it was carried out complementary HPLC analyses with a Biorad HPX-87K Carbohydrate Analysis column (maintained at 65° C., and eluted at a flow rate of 0.6 mL/min with ultra-pure water). By this way, it was possible to measure sucrose consumption by RI detection and concomitant α-D-Glcp-(1-4)-α-D-GlcpNAc formation by UV220 nm and determine mutant ability to synthesize the desired disaccharide α-D-Glcp-(1→4)-α-D-GlcpNAc (i.e., % Glucosyl units transferred onto acceptor derivatives=[Glucosyl units transferred onto acceptor derivatives]/[Glucosyl units transferred from initial sucrose]×100)
All clones producing sucrose-utilizing variants were then picked and cultured in 96-well microplates. Following cell lysis, the acceptor reaction in the presence of D-GlcpNAc was then carried out in microplate format. HLPC analysis time for each clone was reduced to 7 min for detection of α-D-Glcp-(1→4)-α-D-GlcpNAc. When disaccharide formation was detected, complementary analyses were performed to determine sucrose consumption and disaccharide formation with more accuracy in order to calculate the glucosylation yield.

Q: For B1, which “Glusosylation Yield to synthesize ED” value is on record?
A: 100%

Q: Which “Glusosylation Yield to synthesize ED” value does the source give for B2 here?
A: 46%

Q: For B3, which “Glusosylation Yield to synthesize ED” value is on record?
A: 56%

Q: Which “Glusosylation Yield to synthesize ED” value does the source give for B4 here?
A: 29%

Q: With B5 as the molecule, how does the “Glusosylation Yield to synthesize ED” value read?
A: 88%

Q: Which “Glusosylation Yield to synthesize ED” value does the source give for B6 here?
A: 100%

Q: With B7 as the molecule, how does the “Glusosylation Yield to synthesize ED” value read?
A: 72%

Q: Which “Glusosylation Yield to synthesize ED” value does the source give for B8 here?
A: 50%

Q: Which “Glusosylation Yield to synthesize ED” value does the source give for B9 here?
A: 53%

Q: With B10 as the molecule, how does the “Glusosylation Yield to synthesize ED” value read?
A: 49%

Q: For B11, which “Glusosylation Yield to synthesize ED” value is on record?
A: 28%

Q: With B12 as the molecule, how does the “Glusosylation Yield to synthesize ED” value read?
A: 47%

Q: For B13, which “Glusosylation Yield to synthesize ED” value is on record?
A: 61%

Q: Which “Glusosylation Yield to synthesize ED” value does the source give for B14 here?
A: 40%

Q: With B15 as the molecule, how does the “Glusosylation Yield to synthesize ED” value read?
A: 88%

Q: Which “Glusosylation Yield to synthesize ED” value does the source give for B16 here?
A: 56%

Q: For B17, which “Glusosylation Yield to synthesize ED” value is on record?
A: 89%

Q: For B18, which “Glusosylation Yield to synthesize ED” value is on record?
A: 40%

Q: For B19, which “Glusosylation Yield to synthesize ED” value is on record?
A: 79%

Q: Which “Glusosylation Yield to synthesize ED” value does the source give for B20 here?
A: 25%

Q: Which “Glusosylation Yield to synthesize ED” value does the source give for B21 here?
A: 22%

Q: For B22, which “Glusosylation Yield to synthesize ED” value is on record?
A: 35%

Q: With B23 as the molecule, how does the “Glusosylation Yield to synthesize ED” value read?
A: 78%

Same assay, conditions: α-D-Glcp-(1→4)-α-D-GlcpNAc (ED) from sucrose and D-GlcpNAc, microplate format, listed as DM4_P1_G7

Q: For B24, which “Glusosylation Yield to synthesize ED” value is on record?
A: 90%

Same assay, conditions: α-D-Glcp-(1→4)-α-D-GlcpNAc (ED) from sucrose and D-GlcpNAc, microplate format, listed as DM4_P2_A2

Q: Which “Glusosylation Yield to synthesize ED” value does the source give for B25 here?
A: 55%

Same assay, conditions: α-D-Glcp-(1→4)-α-D-GlcpNAc (ED) from sucrose and D-GlcpNAc, microplate format, listed as DM4_P2_B10

Q: Which “Glusosylation Yield to synthesize ED” value does the source give for B24 here?
A: 47%

Same assay, conditions: α-D-Glcp-(1→4)-α-D-GlcpNAc (ED) from sucrose and D-GlcpNAc, microplate format, listed as DM4_P2_G9

Q: For B25, which “Glusosylation Yield to synthesize ED” value is on record?
A: 20%
